Test results as given in the supplement of paper PMC9170038.

Tested on: MS2 coat protein
Assay: apparent KD of MS2 coat protein; designed switch direction (-1 OFF switch, 1 ON switch): -1; higher = weaker reporter binding
How it was run: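 Normalised cluster fluorescence was curve-fitted, and each design's median over clusters is its apparent KD. Before this, SNAP-549-labelled MS2 coat protein was titrated from 0.7 or 1.5 nM, doubling to 3 µM, over RNA switches transcribed on Illumina chips by stalled E. coli RNA polymerase. Titrations had no input, 200 uM small-molecule ligand, or an oligonucleotide input, and steps lasted 0.8–1.5 h (lowest) to 10–20 min (highest).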

[1] = Eterna round: R95, input ligand: FMN 200 uM
[2] = Eterna round: R95, input ligand: microRNA oligo, concentration not stated
[3] = Eterna round: R95, input ligand: none
[4] = input ligand: microRNA oligo, concentration not stated

Sequence	apparent KD of MS2 coat protein [2] [nM]	apparent KD of MS2 coat protein (input ligand: FMN 200 uM) [nM]	apparent KD of MS2 coat protein (input ligand: none) [nM]	also measured
CUGGUCCGAGGAUAUAUUAUGUGAAACAUGAGGAUCACCCAUGUAAUAUGAUGGAUGUAAAUAGAAGGCGGGCUAG [Mat - Exclusion 5 - JL mod - D26] (puzzle: Exclusion 5)	23.2			apparent KD of MS2 coat protein [1]: 30.8 nM; apparent KD of MS2 coat protein [3]: 24.3 nM
CUGUAACGAGCGUGAGCCGACAUGAGGAUCACCCAUGUGCUCGUCUUAUAACGUACUGUCACGUUAGUGAUAGUGCG [Sensor v3, turn-off variant 1 (MOD of Eli's v1-13 v.2)] (puzzle: Sensor v3, turn-off variant 1)	74.7			apparent KD of MS2 coat protein [1]: 45.9 nM; apparent KD of MS2 coat protein [3]: 37.3 nM
CUGUACUGAGGAUAUACAUGAGGAUCACCCAUGUGAUUUGGUGCACGCGUACGUGUACGUAGAAGGCAGUACAG [Mat - Exclusion 3 - Eli Mod - D39] (Eterna round: R97, puzzle: Exclusion 3)		317	25.5	
CUUAAUUGUCACAUGGGUGACAUGAGGAUCACCCAUGUCACAAGCUUUUUGUUCGUCUUAUAAUUAACCCAUGUGAC [Stov1/12-B3] (Eterna round: R97, puzzle: Sensor, turn-off variant 1)		13.8	13.7	
CUUAAUUGUGACAUGGGUGACAUGAGGAUCACCCAUGUCACAAGCUUUUUGCUCGUCUUAUAAUUAACCCAUGUCAC [Stov1/13-A3] (Eterna round: R97, puzzle: Sensor, turn-off variant 1)		30	33.4	
CUUAGUUGGUAAGGAUAUCCUACAUUAUUCUGACCCGUGCAAGCUACAUGAGGAUCACCCAUGUGGGAGAAGGUGCGUUAACGU [Design 7] (Eterna round: R96, puzzle: Exclusion NG 2)		53.5	46	apparent KD of MS2 coat protein [4]: 42.1 nM
CUUAUGUCAGGAUAUUAGUAGUAAAUAAAUAAAAUUAUUACUGAGAAGGGACAUGAGGAUCACCCAUGUUCCUC [Salish 062 v4] (Eterna round: R97, puzzle: Exclusion 4)		96	23.9	
CUUAUGUGAGGAUAUCAGUAGUGAUACGAUAGUAUUACUGCUGAGAAGGCACAUGAGGAUCACCCAUGUUCCUU [Exclusion 4 - Mod Omei Ex4 344 mod v.3] (puzzle: Exclusion 4)	21.9			
CUUCAGUGAGGAUAUGGCAUGCGCUGAUAAGCGCUCUCACGCCAGAAGGCACAUGAGGAUCACCCAUGUAAAAC [Eddionce] (puzzle: Exclusion 4)	41.3			
CUUCAUCCACCAGAGCUCACACUUAUACCUGCUCUGGUGACAUGAGGAUCACCCAUGUUUUUUGCCCGUCUUAUCUU [Sensor v3, turn-off variant 2 (MOD of Leso)] (puzzle: Sensor v3, turn-off variant 2)	19.8			apparent KD of MS2 coat protein [1]: 149 nM; apparent KD of MS2 coat protein [3]: 207 nM
CUUGAGCAGGUAGGAUAUACGAUGUGUCGGCGAGUAGAAGGACCUGCGAUCCACUUGAGGAUCACCCAAGUUCGCAGGAGAACA [Mutated MS2 EX1.18] (Eterna round: R96, puzzle: Exclusion NG 1)		103	33.4	apparent KD of MS2 coat protein [4]: 22 nM
CUUGUGUAAGGAUAUCGAGUAGAACGCUCGAGUUCUGAGCUCGAGAAGGUACAUGAGGAUCACCCAUGUUAAAA [Atusgete] (puzzle: Exclusion 4)	42.2			
CUUGUUUAUGUAGGAUAUGCCUGGCGUGCCUUUGCAGAAGGACAUGAGGAUCACCCAUGUAACAUGAGGCUCACCCUUGUCGCA [salish99_ExNG1_r04_115] (Eterna round: R96, puzzle: Exclusion NG 1)		183	162	apparent KD of MS2 coat protein [4]: 62 nM
CUUGUUUAUGUAGGAUAUGCCUGGCGUGCCUUUGCAGAAGGACAUGAGGAUCACCCAUGUACAUGAGGAUCACCCAUGUUCGCA [salish99_ExNG1_r04_102] (Eterna round: R96, puzzle: Exclusion NG 1)		836	825	apparent KD of MS2 coat protein [4]: 455 nM
CUUUAGCUAGGAUAUACAUGAGGAUCACCCAUGUUAGCGGCCAAUUGGACCGCGGGUUGUAGAAGGAGCAUUAA [Atantiza] (puzzle: Exclusion 3)	29.8			
CUUUCGUGAGGAUAUCAGUAGUAAAUAAAUAAAAUUACUACUGAGAAGGCACAUGAGGAUCACCCAUGUUCCUU [salish99_ex3_r3_095] (puzzle: Exclusion 4)	12.9			
CUUUUGUGAGGAUAUCAGUAGUAAAUAAAUAAAAUUACUUCUGAGAAGGCACAUGAGGAUCACCCAUGUUCCUC [salish99_ex3_r3_087] (puzzle: Exclusion 4)	35.7			

Sequence	apparent KD of MS2 coat protein [2] [nM]	apparent KD of MS2 coat protein (input ligand: FMN 200 uM) [nM]	apparent KD of MS2 coat protein (input ligand: none) [nM]	also measured
CUUUUGUGAGGAUAUCAGUAGUAAAUAAAUAAAUUUACUACUGAGAAGGCACAUGAGGAUCACCCAUGUUCCUC [salish99_ex3_r3_084] (puzzle: Exclusion 4)	45.4			
CUUUUGUGAGGAUAUCAGUAGUAAUACAAUAGUAUUACUACUGAGAAGGCACAUGAGGAUCACCCAUGUUCUUC [Ex4 344 Omei mod 2] (puzzle: Exclusion 4)	23.2			
CUUUUGUGAGGAUAUCAGUAGUAAUACAAUAGUAUUACUAUUGAGAAGGCACAUGAGGAUCACCCAUGUUCCUC [Ex4 344 Omei mod 6] (puzzle: Exclusion 4)	38			
CUUUUGUGAGGAUAUCAGUAGUAAUAUAAUAGUAUUACUACUGAGAAGGCACAUGAGGAUCACCCAUGUUCCUC [Ex4 344 Omei mod 8] (puzzle: Exclusion 4)	27.9			
CUUUUGUGAGGAUAUCAGUAGUAGAACAAUAGUACUACUACUGAGAAGGCACAUGAGGAUCACCCAUGUUUCUC [Fiskers Ex 4 Super stable 44 mod 4] (puzzle: Exclusion 4)	58.7			
CUUUUGUGAGGAUAUCAGUAGUUAAUAAAUAAAAUUACUACUGAGAAGGCACAUGAGGAUCACCCAUGUUCCUC [salish99_ex3_r3_075] (puzzle: Exclusion 4)	39.4			
CUUUUGUGAGGAUAUUAAUAGUAAGUAAAUAAAAUUAUUACUAAGAAGGCACAUGAGGAUCACCCAUGUUCCUC [EX4 #82] (Eterna round: R97, puzzle: Exclusion 4)		102	63.4	
CUUUUGUGAGGAUAUUAGUAGUAAAUAAAUAAAAUUACUUCUGAGAAGGCACAUGAGGAUCACCCAUGUUCCUC [salish99_ex4_r3_063] (puzzle: Exclusion 4)	36.9			
CUUUUGUGAGGAUAUUAUUAGUAAAUAAAUAAAAUUACUACUGAGAAGGCACAUGAGGAUCACCCAUGUUCCUC [salish99_ex4_r3_048] (puzzle: Exclusion 4)	28.8			
GAAAACGAAGAGGAUAUUUGAUAUCAUAGCUUCAAAGAAGGCUUCACAUGAGGAUCACCCAUGUGAUCUUCAAU [Mat - Exclusion 6 - JL Mod - D19] (Eterna round: R97, puzzle: Exclusion 6)		116	23.8	
GAAAACGCAAAGGAUAUUACAGAUCAAAGCUGCUGAGAAGGUUGCACAUGAGGAUCACCCAUGUGGUCUUUCAA [Mod of Quesina 18 - Jieux - Exclusion 6] (Eterna round: R97, puzzle: Exclusion 6)		213	27.3	
GAAAACGUAGGAUAUUAAUACUUAGACAUGAGGAUCACCCAUGUUUGGUGGGUUUAAGAAUGAGAAGGGCGAUGAA [EX5 #7] (Eterna round: R97, puzzle: Exclusion 5)		222	189	
GAAAACUCAGGAUAUGCGUGAGAAAACUUGAGGAUCACCCAAGUGUGGUCCCGAUCUAAAGCAGAAGGGAGCAAAA [Lebidiraus] (Eterna round: R97, puzzle: Exclusion 5)		1770	353	
GAAAAGAACGAGGAUAUGUUGGUGCAUACACUUGCAGAAGGCGUUACUUGAGGAUCACCCAAGUGAGACCGAGU [Cetelege] (Eterna round: R97, puzzle: Exclusion 6)		273	124	
GAAAAGAGAGGAUAUACAAGAAGAAAAGAAAAGAAAAGAAAACAUGAGGAUCACCCAUGUAGAAGGCUCAAAAG [Default title] (puzzle: Exclusion 2)	12.7			apparent KD of MS2 coat protein [1]: 18.2 nM; apparent KD of MS2 coat protein [3]: 20.3 nM
GAAAAGGUAGGAUAUACGAAAAAAAAGGGAAGAAAAAAAACACAUGAGGAUCACCCAUGUAGAAGGACCAAAAG [salish99_ex2_r3_064] (puzzle: Exclusion 2)	21.6			apparent KD of MS2 coat protein [1]: 34.4 nM; apparent KD of MS2 coat protein [3]: 20.6 nM
GAAAAGGUAGGAUAUACGAAAAAAAAGGGUAGAAAAAAUACACAUGAGGAUCACCCAUGUAGAAGGACCAAAAG [salish99_ex2_r3_073] (Eterna round: R96, puzzle: Exclusion 2)				apparent KD of MS2 coat protein [4]: 26.7 nM
